Measured values: patent publication US20250387492A1, “HSP90-TARGETING CONJUGATES AND FORMULATIONS THEREOF” (Fusion Pharmaceuticals Inc., priority 2018, published 2025)
Entries after “also recorded” stand apart in the source; their conditions may differ.

Assays:
H69 tumor model mice = assay: Biodistribution in H69 tumor model; conditions: H69 tumor model, 5 mg/kg, 48 h, individual animals
From the text: (§1) In other studies, biodistribution of the conjugates was studied with H460 and H69 tumor models.

[1] = Biodistribution in H69 tumor model; conditions: mouse, in vivo, 5 mg/kg
From the text: as §1

H460 tumor model mice = assay: Biodistribution in H460 tumor model; conditions: 5 mg/kg
From the text: as §1

[2] = Biodistribution in H460 tumor model; conditions: mouse, in vivo, 5 mg/kg
From the text: as §1

[3] = Lu levels in tumor, kidney and liver of mice at 0.5 mg/kg; conditions: for Tumor uptake (comparison): vs Conjugate 1 and Conjugate 2
in vivo = conditions: female, Nude, mouse, iv, 3.7 MBq, total radioactivity
Method: Radioactive conjugate accumulation was measured in tumor, plasma and healthy tissues of NCI-H460 tumor-bearing mice (lung cancer). […] For each tissue, the percent injected dose per gram of tissue % ID/g was calculated.

[4] = Concentration in H460 tumor, H460 tumor model, individual animals
[5] = Concentration in Mouse kidney, H460 tumor model, individual animals
[6] = Concentration in Mouse plasma, H460 tumor model, individual animals

## CCNC(=O)c1nnc(-c2cc(C(C)C)c(O)cc2O)n1-c1ccc(CN2CCN(C(=O)CCNC(=O)[C@@H](CCCCN)NC(=O)[C@@H](CCCCN)NC(=O)[C@@H](CCCCN)NC(=O)CN3CCN(CC(=O)O)CCN(CC(=O)O)CCN(CC(=O)O)CC3)CC2)cc1 [Conjugate 3]
H69 tumor model mice
  Concentration in H69 tumor: 0.20 µM
[1]; Concentration in H69 tumor, H69 tumor model, 48 h, individual animals
  level at time molar at 48 h: 0.2 µM
[1]; Concentration in Mouse liver, H69 tumor model, individual animals
  level at time molar at 24 h: 0.08 µM
[1]; Concentration in Mouse plasma, H69 tumor model, 1 h, individual animals
  level at time molar at 1 h: 1.22 µM
[1]; Concentration in Mouse plasma, H69 tumor model, individual animals
  level at time molar at 24 h: 0.038 µM
H460 tumor model mice; H460 tumor model, 1 h, individual animals
  Concentration in Mouse liver: 0.070 µM
[2]; [4]
  level at time molar at 48 h: 0.091 µM
[2]; [5]
  level at time molar at 1 h: 4.52 µM
  level at time molar at 48 h: 4.29 µM
[2]; [6]
  level at time molar at 24 h: 0.011 µM
  level at time molar at 48 h: 0.011 µM

## CCNC(=O)c1nnc(-c2cc(C(C)C)c(O)cc2O)n1-c1ccc(CN2CCN(C(=O)CCNC(=O)[C@@H](CCC(=O)O)NC(=O)[C@@H](CCC(=O)O)NC(=O)[C@@H](CCC(=O)O)NC(=O)COCCOCCNC(=O)CCCCn3cc(CN(CCCNC(=O)CC[C@H](C(=O)O)N4CCN5CCN6CCN(CC4)CC(=O)[O][Lu]([O]C(=O)C6)[O]C(=O)C5)C(=O)CCCNC(=O)CCCc4ccc(I)cc4)nn3)CC2)cc1 [Conjugate 10]
[3]
  Average Lu in Liver: 1.51 % ID/g
  Average Lu in kidney: 11.18 % ID/g
  Average Lu in tumor: 8.49 % ID/g
  Tumor uptake (comparison): noticeably higher than Conjugate 1 and Conjugate 2

## CCNC(=O)c1nnc(-c2cc(C(C)C)c(O)cc2O)n1-c1ccc(CN2CCN(C(=O)CCNC(=O)[C@@H](CCC(=O)O)NC(=O)[C@@H](CCC(=O)O)NC(=O)[C@@H](CCC(=O)O)NC(=O)CN3CCN4CCN5CCN(CC3)CC(=O)[O][Lu]([O]C(=O)C4)[O]C(=O)C5)CC2)cc1 [Conjugate 2]
[1]; Concentration in H69 tumor, H69 tumor model, individual animals
  level at time molar at 24 h: 0.24 µM
[1]; Tumor Levels, H69, 5 mg/kg, H69
  level at time molar at 24 h: 0.33 µM
[3]
  Average Lu in kidney: 2.86 % ID/g
  Average Lu in tumor: 0.92 % ID/g
H460 tumor model mice; H460 and H69 tumor models
  Clearance from plasma: clear rapidly from plasma; also recorded: slightly superior
H460 tumor model mice; H460 and H69 tumor models, Conjugate 1 vs Conjugate 2
  Tumor retention (comparison): similar
H460 tumor model mice; H460 tumor model, 48 h, individual animals
  Concentration in Mouse kidney: 0.54 µM
[2]; [4]
  level at time molar at 1 h: 1.17 µM
  level at time molar at 48 h: 0.22 µM
[2]; [5]
  level at time molar at 1 h: 1.55 µM
  level at time molar at 24 h: 1.45 µM
  level at time molar at 48 h: 0.54 µM
[2]; Concentration in Mouse liver, H460 tumor model, individual animals
  level at time molar at 1 h: 0.016 µM
[2]; Tumor Levels, H460 (2), H460 study (2)
  level at time molar at 24 h: 0.65 µM

## CCNC(=O)c1nnc(-c2cc(C(C)C)c(O)cc2O)n1-c1ccc(CN2CCN(C(=O)CCNC(=O)CC[C@@H](NC(=O)CC[C@@H]3C(=O)[O][Lu]4[O]C(=O)CN5CCN(CC(=O)O)CCN3CCN(CC5)CC(=O)[O]4)C(=O)N3CCN(Cc4ccc(-n5c(C(=O)NCC)nnc5-c5cc(C(C)C)c(O)cc5O)cc4)CC3)CC2)cc1 [Conjugate 9]
[3]
  Average Lu in Liver: 2.92 % ID/g
  Average Lu in kidney: 2.40 % ID/g
  Average Lu in tumor: 5.73 % ID/g
  Tumor uptake (comparison): noticeably higher than Conjugate 1 and Conjugate 2

## CCNC(=O)c1nnc(-c2cc(C(C)C)c(O)cc2O)n1-c1ccc(CN2CCN(C(=O)CCNC(=O)[C@@H](CCC(=O)O)NC(=O)[C@@H](CCC(=O)O)NC(=O)[C@@H](CCC(=O)O)NC(=O)CN3CCN(CC(=O)O)CCN(CC(=O)O)CCN(CC(=O)O)CC3)CC2)cc1 [^177Lu-2, metal not drawn]
In vivo; Radioactivity in Bone Marrow
  tissue uptake at 6 h: 0.01 %ID/g
In vivo; Radioactivity in Brain
  tissue uptake at 6 h: 0.01 %ID/g
In vivo; Radioactivity in Eyes
  tissue uptake at 6 h: 0.12 %ID/g
In vivo; Radioactivity in Kidney
  tissue uptake at 6 h: 4.29 %ID/g
In vivo; Radioactivity in Liver
  tissue uptake at 6 h: 0.33 %ID/g
In vivo; Radioactivity in Tumor
  tissue uptake at 6 h: 1.21 %ID/g
